Laboratory results reported in US20120329995A1.

Target: human CD3 (human) (UniProt P07766)
Assay: flow cytometry, serially diluted antibody on Jurkat cells, PE goat anti-mouse IgG

Chain of human CD3 (human) (P07766 23-207): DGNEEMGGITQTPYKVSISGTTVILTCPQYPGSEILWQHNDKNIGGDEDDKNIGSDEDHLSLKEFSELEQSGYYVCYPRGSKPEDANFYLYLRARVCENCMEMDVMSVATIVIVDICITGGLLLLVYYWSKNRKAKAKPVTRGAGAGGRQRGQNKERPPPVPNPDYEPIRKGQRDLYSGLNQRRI

## OKT3 antibody (mouse anti-human CD3, recombinant, made in 293T cells from pME-wtOKT3 HC and pME-wtOKT3 LC)
  antibody concentration giving comparable binding: 0.4 ng/mL
